Measured values as given in PMC5180104, “Interaction of cytokeratin 19 head domain and HER2 in the cytoplasm leads to activation of HER2-Erk pathway” (Scientific Reports, 2016).

Molecular target: T1, purified recombinant Flag-tagged HER2 C-terminal domain (human, UniProt P04626 988-1255)
T1 construct: HER2, human, COOH-terminal domain; C-ter is defined as 988-1255 aa in the plasmid section; The results call this protein Flag-tagged; It may be the same construct as m14; source: HEK293T, transfected, purified (antibody bead column)
Assay: pull-down; purified GST fusion proteins and purified HER2 C-terminal domain; Glutathione sepharose 4B (GSH beads)
Settings: both partners purified

binding result: binds
B1: GST-T4 (domain or fragment, human, UniProt P08727 1-79, looked up)
chain: MTSYSYRQSSATSSFGGLGGGSVRFGPGVAFRAPSIHGGSGGRGVSVSSARFVSSSSSGAYGGGYGGVLTASDGLLAGN
notes: KRT19, human, T4 fragment (head domain); also called GST-T4 wt; source: E. coli, purified (Glutathione sepharose 4B column)
